Source: PMC7192610
Read-outs that look alike come from different tables or passages of the source.

B1: CCNG1 WT (dsDNA)
DNA 1: AAACTCTACCGCTGTTGTGAGCACAAGCCCAGGCTAGTCCGAGGCTGGAGGGGCGGAGCC
DNA 2: GGCTCCGCCCCTCCAGCCTCGGACTAGCCTGGGCTTGTGCTCACAACAGCGGTAGAGTTT
B2: CCNG1 L2 (dsDNA)
DNA 1: TACAAGGAGGCTTTTCATCCGCACAAGCCCAGGCTAGTCCGAGGCTGGAGGGGCGGAGCC
DNA 2: GGCTCCGCCCCTCCAGCCTCGGACTAGCCTGGGCTTGTGCGGATGAAAAGCCTCCTTGTA

Experiments:
[1] = target: T1, GST-p53(1-393) (Homo sapiens, UniProt P04637 1-393); test: EMSA
T1 sequence (P04637 whole entry): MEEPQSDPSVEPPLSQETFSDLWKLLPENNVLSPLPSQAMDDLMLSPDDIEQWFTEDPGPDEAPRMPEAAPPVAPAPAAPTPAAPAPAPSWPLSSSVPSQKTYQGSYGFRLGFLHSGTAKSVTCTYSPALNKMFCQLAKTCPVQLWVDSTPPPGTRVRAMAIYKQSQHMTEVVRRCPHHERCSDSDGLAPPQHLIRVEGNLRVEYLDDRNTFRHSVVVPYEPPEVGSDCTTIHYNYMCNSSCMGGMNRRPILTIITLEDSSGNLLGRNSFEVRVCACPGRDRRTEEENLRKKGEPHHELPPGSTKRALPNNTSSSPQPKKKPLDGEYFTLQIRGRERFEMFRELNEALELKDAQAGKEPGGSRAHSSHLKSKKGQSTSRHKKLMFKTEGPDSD

[2] = target: T1, GST-p53(1-393); test: EMSA; remark: listed apart in the source

| Binder | binding result [1] | binding result [2] |
| --- | --- | --- |
| B1 | binds |  |
| B2 |  | binds |
